The DeepSol protein solubility set

Test: soluble on expression in E. coli; label from the status in PepcDB or PDB records

| Sequence | soluble on expression in E. coli |
| --- | --- |
| MSLAPCGLVPSARQLEWYNREMIAFFHFGINTFEEYVNEGDGKASTAIFNPTALDCRQWMQTLKAAGIPAAILTAKHADGFCLWPSKYTDYSVKNAAWKNGKGDVVREFVDACEEYGLKAGIYLGPHDRHEHLSPLYTTERYKEYYAHQLGELMSDYGKIWETWWDGAGADELTTPVYRHWYKIVREKQPDCVIFGTKNSYPFADVRWMGNEAGEAGDPCWATTDSVAIRDEAQYYKGLNEGMLDGDAYIPAETDVSIRPSWFYHAEEDSRVKSVRELWDIYCTSVGRNSVLLLNFPPDRRGLIHSTDSLHAALLKQGIDETFSTNLLRGAKVKATNVRGAKYSPEKMLDNEKNTYFAGKDGEVKADIIFTLPKTIEFDCLMIEEVIELGHRTTKWSVEYTVDGKNWITIPEATDKQAIGHKWIVRLAPVKAKQVRLRIQDGKACPAIHTFGVYKQSPVFKEGHHHHHH | soluble |
| MPRHFHVALLILVLCGAERARGALRVQLQDYDKNSWRSVLRRVAPEWVLEEFADVKVLSAAENGFQLPKSGLAQIEINKSGRKTVTANTPTDALNAINTYLRTECLSQVSWSNSSFSSGCRKRTSDFINFESKQIRYFGNMCTFSYSFAWWEWPQWERFIDWIALNGFNTVLMPLGQEIIWRDIFMGLGVQRDELDSYFTSQAYLAWHRMGNLKAYGGGLSDAQMLNDHNLAKRIIDRLLELGITPILPTFAGFVPDHLETLFPASKFNRLPRWNNFTSETSCMLSVSPFDPLFQKIGSTFLRHQKKMFGGDVTNMYSADPFNEILPSESAKFDAKFVKQTAQAIMNSCKKVDKNCVWVLQSWSFTYDQWPAWAIKSFLSAIPVGNLLILDLYAEVVPAWQMTSSFQGHHFVWCLLHNFGGSRELRGNLQKIDKGYQLALMKAGSNLVGAGLSMEAIDQNYVVYQFMIDRMWSPEPLPLNNWLKAYSESRYSADFKVAQKFWTLLAGTFYNQPEKWGTPRFSVFLYHRPGFGRKIEYWFPVEETFSRFRELLPALVHVLGEHPLFREDLNDVMREMTQFEMGNEAALSMSEAFLMEDKQQVGASCEMLMEMFQKLESYSNRDVRQWIENAKSIAPTSEERQVFPVTAGDILTVWGPTGQNLDYAHREWAGLMSGYYGRRWQYFCDWILEHDDFNHTEFSISVFRDVERPFSISNI | not soluble |
| MPVLALRLTALAALVISVSGCVMEAYGSRARSDAQSWIGLPIQDVIKRFGEPERVTGDAARQKYVWKEYENYSHDYDYTYYEQGHGNTPNSSVLNQKTGTANQSGYYTCIYEFFADASGRVVDATARGECR | not soluble |
| MAHHHHHHMNKTKIESSYFTYQNNHSKIGNPILYKGEVIGMEIIDIRVKDDVEGLFNVCSCYLDNEHHAYNKCSESDIHYMQISSIRIIIKIVHNINILTGKKLHINLQDYVTPYPIKSAFIIKKVEHYSCNNINNKSFNEIQEHFYNNEKKLKFYNIFLYETDLQEFKEDIIFENPGMYLLCYTSNDSQSEYSAELSTILVNGNY | not soluble |
| SLKITDDCINCDVCEPECPNGAISQGEEIYVIDPNLCTECVGHYDEPQCQQVCPVDCIPLDDANVESKDQLMEKYRKITGKA | soluble |
| MSLGDITISFESSDIDRHLILGVDWLIEGNLYEDAVESSIALSRRFLLNGKVKSLEMFLDEKPIDDLLKNYQLSKIHEMDVDSTEDTSVLEIQQYRYLINIFKQYMEWEKTVKLLNSESNIPSIIEKFQEFFQSTFKLIKTFLVDLTENIDHKDHDILFEIRALYTPYLIMELHKGLVEAASLLRIPRFIKDALNITNLVANEDDKIYLLFQSSGKLKEYLQLVAQTATLTEGHHHHHH | soluble |
| MGSDKIHHHHHHMLTRTHEAIPEIMYRIGDLADETGLPCYIVGGYVRDLIMQRPCTDIDIMVIGEPVPFAHALAEKLGGRNFVLFERFRTAQLELDDPKAGTFKLEIVGARKESYNPESRKPITSIGTLEDDLSRRDFTINALALRLNRKERGEVVDLFDGQRHIREKLLKTPLDPEQTFSDDPLRMMRAARFACQLDFQLDEATLTAMSTMSSRIQIVSRERVSHEFFKIMEARKPSIGLKILYSTGLLKEIIPELTVMAGIEQVDGLGHKDTLFHTFQVVDNLAEHSDKLWLRVSALFHDIAKPVTKRFHPGSGWTFHGHEAVGVKIVARIFRAMKWPLEPMEYVQKMVRLHHRPIPLSKEEITDSAVRRLMFDAGPDLDDLMTLCRADVTSKNPRKVQRIMKNFSNVEAKIAEVGEKDLLAKWRPPVSGTDIMELLNLPQGRTVGIIKSRMENAIIDGDIPYDRQAALDYIQQVYREMQEKGEA | not soluble |
| MGSDKIHHHHHHMLRLSALGDVCNLVPTIRVLQRLWPDARITWIIGKGEHSLLAGLSGVEFIVYDKATGLAGMREVWRQLGDTRFDVLLHMQQALRASVLSLGLKADLRIGYDKARAKDWQHWFTHRQLTPHPRAHVLDSFLDFARLLGGAERVDAEPLRWDLAIPDTAYQEAARVTGDAPYIVISPCANPRLRNFRNWSAEGYAAVISHAWQEHGLRTVMTGGGSTQEQEMGARIRALCAEEAVIDAIGATSLKGLLAMLDRARMVIAPDSGPVHMANALRTPTLGLYATTNPERAAPYCWRDFVVDRYPDAVRRYLHKSPEAITWGARVRHPDAMSLIHADDVIAQFDALLNAAPSASSRPEPDHET | not soluble |
| MGSKISIINHINTIRYYLKKNEVEDKVEDPAGAAEPESTEAFGTFISPSTGMEFIMAPAGEFLMGSSPEEKGRSYSESPVHRVTIKNPFYIGKYQVTQKQWKTIMGTSPSNFNEDFRPVELVSWEDVQEFIGKLNAMENTTKYRLPSEAEWEYACRAGKQSRYFFGEDESKLGDYAWYARNAGRKTHPAGRKKPNRWGLYDMCGNVWEWVQDSWHEDYNGAPSDGSAWEDGNSSNRVSRGGSWYCSTNSCRSASRFSREPEKHLANLGFRLVKELLEHHHHHH | not soluble |
| MSSSLQSNRQSLNRKVAVMGYPHVGKSALVLRFTQNIFPERYESTIEDQHSKHIAAFHRDYHLRVTDTAGQQEYTVFPRSCSLDINGFILVYAIDDRKSFEMCSNIYEKIVRTYGDTSIPIVIVGNKTDLSTQRVVRAEEGEELARQWDAKFVEITARESNRVHEVFELLLREIEISRGNLSPTERPNGNSPKRNPFKDDGKPCSIS | not soluble |
| MAMIGLVGKPNVGKSTMFNALTEKPAEIGNYPFTTIQPNKGIAYITSPCPCKELGVKCNPRNSKCIDGIRHIPVEVIDVAGLVPGAHEGRGMGNKFLDDLRQADAFILVVDASGKTDAEGNPTENYDPVEDVKFLLNEIDMWIYSILTKNWDKLARRAQQEKNIVKALKDQLSGLNIDEDDIKMAIRDMDESPIKWTEEDLLNLAKKLRKISKPMIIAANKADHPDAEKNIERLKKEFKDYIVIPTSAEIELALKRAEKAGIIKRKENDFEIIDESKVNEQMRRAFDYIKDFLKKYGGTGVQECINKAYFDLLDMIVVYPVEDENKFSDKQGNVLPDAFLVKKGSTARDLAYKVHTELGEKFIYAIDAKKKIRVGADYELKHNDIIKIVSAAK | soluble |
| MIRKLDKAEFQQATTLALEVYLQCGQDDFEDEGLESFKSFIFNDKLMNELCIYGAFEENKLIGIMGTKNEGKHISLFFIKKEFHRKGIGKQLFDYSQCDCPANEITVNSSTYAIRFYESLGFEKTNDRQQTNGISYTPMKLISNKLEHHHHHH | soluble |
| MVKSIVILIETVTMKIPAVYSDGSFKTFNDSETTAQKLVDSGVVNTFAFGPTLVENGKVAVSENEEVGQDMADNPRTAIVVNEESDRSVHYIVIVSDGRTSESSGLTLYEMAELMKSYGVMTGYNLDVGDSSTMYSLEHHHHHH | not soluble |
| MKKYADDSLMLHTDLYQINMVETYWEDRMHERRAVFEVFFRKLPFGNGYAVFAGLERVIQFLQQFRFSDSDIDYLRQELGYRDDFLDYLRTLRFTGTVRSMREGEVVFANEPIMRIEAPLAEAQLIETAILNIINFQTLIATKASRIKHILGDEPALEFGSRRAQEMDAALWGARAAYIGGIEATSNVRAGKLFGIPVAGTHAHSMIQAYQDEYTAFLKYARRHKDCVFLVDTYDTLKSGVPNAIRVAKELGDQINFIGIRIDSGDLAYLSKEARKMLDEAGFPNAKIFASNDLDEDTILNLKSQGAKIDVWGIGTKLITAYDQPALGAVYKMVAIENERGEMVDTIKISGNPEKVTTPGLKRVYRIVNKINHKAEGDYIALESENPQQEERLKMFHPVYTFISKFVTNFEARDLHVTIFDNGRLVYTSPPLPDIQAYAKESLRLFWEEYKRTLNPEQYPVDLSQACWDNKMENIRKVKEKIAGASLSE | not soluble |
| MSLNAQTLLANVAELVKTKLKPLVDDIDRKGYYPEAFMRELGAIGAVGIEAEGGNGLGLATRIAVLREIGKECGATSFSAWCQAACAWYLHQTPNQAVKDKYLADILQGKVLAGTGMSNTVKHLAGIEKHNLQAECVEGGYTVNGALPWVSNIGEDHIWANTAQIGGGYVMFITGGQREGVSLQNCPEFCALEGTHTFSLNFKDVFIPDEDIIAAPEQFAGYIQSIKAGFILLQIGIGAGVIDGSLGIIRLVNVVNAEVNSYLDDGYDSLKARLDGAWAETERLAGLAWDNTPDNLATLKLREAAAVLALAAAQSAALHSGAKGYLMRSPAQRRVGEAMFVAIVTPAIKHLCKEIAAIEAAKEGHHHHHH | not soluble |
| MSLDDLQSIRESREIRIAMSGQYSPFSFANEQNQIVGFDASISEALAQRLGVKVSIVTTPFDGIIAGLLAKKYDAIIASMTITPERLRAVDFVGPYYHAGRTIVVKEDSPINSLADLKDVTVGVTLGDAHDKWARARGNLKVKTYKGLPEMLVDLEAGRLDALVMDSVPVLVAVKETGQKVRIITPPDSDGGVEGMGIALRKNNPELKAAMQQALNDMLADGSYEKISMKWIGKDIREGHHHHHH | soluble |
| MSVSPFFNPKRDSQLGEMMRDMGGMQRRLMPISGTFNPMTDDSEIMNSNDKFAVNLNVSNFKPEELKVNLEGRQLSIQGEHDVENEHGASRKSFSRMILLPEDVDITSVATNLSNDGKLCIEAPKLEGVCGRSVPVKEASMDHHHIE | not soluble |
| MRGKRVVLPDKDHQACGLFGVIDRSGRRFSGEMAINAMINMKVRGNGLGGGFAAYGIYPEYKDYYALHVMFQDWDMEAKHRVDEFLDANFDVVYAEEIPVNPEANVASPPLFWRYFVSPNKKGDEKKLSDDDYVVKKVMEINTKINNAYVVSSGKDMGVFKGVGFPEDIAEYFMLAEEYKGYMWTAHSRFPTNTPGWWGGAHPFCILDWTVVHNGEISSYGTNKRYLEMFGYYCTLLTDTEVMAYAVDLLMRKQGLPIEIVSKIFAPPMWDHIDIMDEKKKKFYTALRMNYGPLLINGPWTIVVARHGEMFGITDRIRLRPITSGEKGDLLFVSSEESAIRAVCPDLDRVYTPMGGEPVIGRLKSREKELAKQLSEVE | not soluble |
| MGSDKIHHHHHHMMFQEQIDLLQQKGLYRSLKSVGYIDRQYIEVENKRCTNYTSNDYLGLGQIAFDKDDFERFMRKYSYHLSSSRLISGSSTAYEEIETMLAGWLGYSACTILNSGYDANLALFNIFKNTNCVVFSDQENHASIIDGIKLSGLEKVIYKHLDIADLEKRLEKYPNQNIPKIIISDSVFSTNGDVVDIGQLVSLKHKYNATLILDVSHSFGIENYSNYQGVDILTSSLSKACGAYGGVILSSNDVKDMLINHGRPLIYSSSLPIYNLYFIKRNIEKLINADDRRTKLNSLSKYFNQKLKALNVNYNSSNSPIKFIEFDDIEAAENIHQTLLKHHVFTSYLRYPTVTKPMLRISLSYFHTEQDIDRLFEILHQED | not soluble |
| MEGIMNPYTALPTPQQLLAIEQSVYSSDPFRQGLTPPQMPGDHMHPYGAEPLFHDLDSDDTSLSNLGDCFLATSEAGPLQSRVGNPIDHLYSMQNSYFTS | soluble |
